Reference: paper doi:10.1101/2021.10.18.464838

Columns and labels:
[1] = target: Hsp72 tracer FITC-Ahx-…; experiment: fluorescence polarisation
[2] = target: DnaJB4 (recombinant, human, full length, wild type) (human) (UniProt Q9UDY4); experiment: fluorescence polarisation
[3] = target: DnaJB4 (recombinant, human, full length, wild type) (human) (UniProt Q9UDY4); experiment: differential scanning fluorimetry

“CHIP (recombinant human) (from UniProt Q9UNE7 1-303) (natural protein)” showed a Kd [1] of 1 µM.
“DnaJB4 QPD mutant (from UniProt Q9UDY4 1-337) (natural protein)” was tested, and the Kd [1] was 2.03 µM.
“Hsc70 C-terminal 10-mer peptide, unlabeled, N-acetylated” showed a % tracer displacement [2] of 67.6% and a Tmapp of DnaJB4 with 100 µM peptide [3] of 59 °C.
